Measured values as given in patent publication US20150301068A1 (VIB VZW, published 2015).

Molecular target: the molecule itself
Assay: Western blot of HEK lysates after detergents, 95 C and beta-mercaptoethanol; homodimer band at about 50 kDa

B1: tetraspanin 6 (TSPAN6) (other)
chain: MASPSRRLQTKPVITCFKSVLLIYTFIFWITGVILLAVGIWGKVSLENYFSLLNEKATNVPFVLIATGTVIILLGTFGCFATCRASAWMLKLYAMFLTLVFLVELVAAIVGFVFRHEIKNSFKNNYEKALKQYNSTGDYRSHAVDKIQNTLHCCGVTDYRDWTDTNYYSEKGFPKSCCKLEDCTPQRDADKVNNEGCFIKVMTIIESEMGVVAGISFGVACFQLIGIFLAYCLSRAITNNQYEIV
notes: Endogenous TSPAN6 in HEK cell lysates, exosomes and human CSF, on Western blots; also called tetraspanin TM4-D; tetraspanin TM4SF
B1: binds.
